Series [1] has as its target DBF1 (Zea mays). Kind of series: EMSA; same buffer. As to conditions: tags: pET28 tag (about 31 aa), expressed in E. coli; label: 32P. The source says: (§1) The following DNA oligonucleotides were used in electrophoretic mobility shift assays: DRE2 (SEQ ID NO 4 and 5), DRE2 m (SEQ ID NOs 6 and 7), DRE1 (SEQ ID NO 8 and 9), DRE1/ABRE1 (SEQ ID NOs 10 and 11), ABRE A (SEQ ID Nos12 and 13). The full-length oligonucleotides were purified by denaturing PAGE. Complementary oligonucleotides were annealed and purified in nondenaturing polyacrylamide gel. The double-stranded oligonucleotides were labelled with α³² P-dATP (3000 Ci/mmol, Amersham) by filling in with the Klenow fragment of the DNA polymerase I (Sambrook et al., 1989) and purified on a NAP5 column (Pharmacia), according to the manufacturers instructions. Unlabeled competitor DNA was filled in with nonradioactive nucleotides.
(§2) The radioactive probe was incubated with 400 ng of protein in 20 μl of 1× binding buffer (25 mM HEPES, pH 7.8, 75 mM KCl, 5 mM MgCl_{2,} 0.5 mM EDTA, 0.2 mM DTT and 10% glycerol) and 700 ng poly(dl-dC) for 20 min on ice before loading on a 1× Tris-borate-EDTA, 5% (30:0.8 acrylamide-bis) polyacrylamide gel. Electrophoresis was at 10 V/cm at 4° C. In competition assays the protein was incubated with non-radioactive oligonucleotides in 1× binding buffer, on ice for 10 min prior to adding the radioactive probe and continuing with incubation for 20 min more.

In series [2] the target is DBF1 (Zea mays). Kind of series: EMSA; same buffer; ABRE reported as not bound. As to conditions: tags: pET28 tag (about 31 aa), expressed in E. coli; label: 32P.
Chain of DBF1 (Zea mays) (chain, as listed by the source): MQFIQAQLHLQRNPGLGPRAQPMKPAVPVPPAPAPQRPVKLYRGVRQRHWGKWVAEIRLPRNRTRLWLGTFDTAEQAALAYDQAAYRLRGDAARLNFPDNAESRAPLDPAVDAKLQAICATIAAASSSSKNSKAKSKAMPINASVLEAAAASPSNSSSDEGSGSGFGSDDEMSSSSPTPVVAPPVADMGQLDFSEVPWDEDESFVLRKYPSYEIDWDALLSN
Description: as §1, §2

B1: DRE1 (dsDNA)
DNA 1: GGGGTCGAGAAGAACCGAGACGAAGCGGTCGAG
DNA 2: GGGGCTCGACCGCTTCGTCTCGGTTCTTCTCGA
On to B1, for which, in the series with DBF1 [1], the binding result was “no binding”.

B2: ABRE A (dsDNA)
DNA 1: TGGAAGCTTCGCGCCACGTGGGCATGAGATCT
DNA 2: TGGAGATCTCATGCCCACGTGGCGCGAAGCTT
B2: the binding result with DBF1 [2] was “no binding”.
